Test results taken from article PMC9830397 (European Journal of Translational Myology, 2022).

Biological target: FITC-labelled human holo-transferrin (human, UniProt P02787 20-698, FITC label (position not given); holo form)
Experiment: solid-phase fluorescence binding assay

Chain of FITC-labelled human holo-transferrin (P02787 20-698): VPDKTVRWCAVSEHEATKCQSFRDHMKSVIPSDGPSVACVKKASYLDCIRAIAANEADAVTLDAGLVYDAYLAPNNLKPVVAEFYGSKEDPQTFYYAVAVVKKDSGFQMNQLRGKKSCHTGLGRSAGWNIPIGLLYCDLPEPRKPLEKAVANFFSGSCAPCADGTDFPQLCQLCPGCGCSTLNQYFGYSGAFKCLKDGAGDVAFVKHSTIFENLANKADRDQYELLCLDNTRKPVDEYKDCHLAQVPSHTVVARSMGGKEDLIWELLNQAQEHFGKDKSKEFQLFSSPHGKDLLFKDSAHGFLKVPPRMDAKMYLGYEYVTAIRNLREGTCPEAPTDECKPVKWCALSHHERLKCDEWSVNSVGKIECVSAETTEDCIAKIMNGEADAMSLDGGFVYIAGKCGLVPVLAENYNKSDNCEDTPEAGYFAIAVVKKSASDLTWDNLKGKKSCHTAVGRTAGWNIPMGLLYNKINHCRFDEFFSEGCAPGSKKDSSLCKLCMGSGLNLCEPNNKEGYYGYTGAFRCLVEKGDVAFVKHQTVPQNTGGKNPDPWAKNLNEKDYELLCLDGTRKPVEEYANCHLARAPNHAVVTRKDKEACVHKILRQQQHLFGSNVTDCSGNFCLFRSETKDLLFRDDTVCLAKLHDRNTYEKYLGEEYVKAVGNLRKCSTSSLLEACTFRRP

binding result: binds
B1: immX3AVD (peptide)
peptide: KKGFYKKKQCRPSKGRKRGFCWAVD
modifications: biotinylated (position not given); labelled with streptavidin-Alexa 488 conjugate (SA488) in the nuclear receptor assay
